{
  "source": "patent US9505841B2",
  "about": "“Use of an anti-Ang2 antibody” (Samsung Electronics Co., Ltd., priority 2013, dated 2016)",
  "molecules": {"B1": {"name": "10D6: mouse anti-Ang2 monoclonal antibody from hybridoma KCLRF-BP-00295; heavy chain variable region SEQ ID NO: 7, light chain variable region SEQ ID NO: 9 (antibody, V domains shown)", "VH": "DVQLQESGPGLVKPSQSLSLTCTVTGYSITSDYAWNWIRQFPGNKLEWMGYINYSGNTDYNPSLKSRSSITRDTSKNQFFLQLNSVTTGDTATYYCARGNFEGAMDYWGQGTSVTVSS", "VL": "SIVMTQTPKFLLVSAGDRVTITCKASQSVSNDVAWYQQKPGQSPKLLIYYASNRYPGVPDRFTGSGYGTDFTFTISTVQAEDLAVYFCQQDYSSPWTFGGGTKLEIK", "modifications": "Synthetic (Heavy chain variable region of an anti-Ang2 antibody); Synthetic (Light chain variable region of anti-Ang2 antibody)"}},
  "key": {"[1]": {"system": "mutant Ang2 protein", "test": "Epitope ELISA with alanine-mutated Ang2 proteins", "format": "binding, human", "details": "A449 substituted with alanine", "description": "To verify the epitope (or specific binding site) of the anti-Ang2 antibody prepared in Example 2, an ELISA was performed using a recombinant protein where a receptor binding domain (RBD) of Ang2 protein in the form of being tagged with Flag was mutated by artificial means.\nEach well of a 96-well MaxiSorp™ flat-bottom plate (Nunc) was coated with 50 ul (microliter) of 1000 nM antibody. Then, the plate was washed five times with 0.05% (v/v) Tween-20-containing PBS (PBST) and blocked with 1% (v/v) BSA-containing PBS at a room temperature for 2 hours. 250 ng of each mutant Ang2 protein obtained by substituting S417, Q418, P419, N421, 1434, D448, A449, P452, Y460, N467, K468, or F469 residue of Ang2 protein tagged with a FLAG sequence (DYKDDDDK, Sigma) at its N-terminal with alanine was added to each well of the plate, which was then allowed to react at a room temperature for 2 hours. […]\nFinally, 50 ul of TMB substrates (Cell signaling) was added to each well of the plate to induce color development at a room temperature for 3 min. and the reaction was ceased by the addition of 50 ul of Stop solution (Cell signaling) and then, OD450 values were measured on a plate reader (Molecular Devices). […]"}, "[2]": {"system": "ICAM-1", "test": "LPS-induced mRNA expression of ICAM-1 in HUVEC (qPCR)", "format": "cell-based, human", "details": "100 ng/ml LPS 5 hours, 0.2 ug/ml Ang1 or 0.1 ug/ml Ang2 + 0.5 ug/ml antibody", "description": "To see anti-inflammatory effects by antibody 10D6, HUVEC (ATCC) cells (4×10^5) were treated with Ang2 alone or Ang2 together with antibody 10D6, and a group in which Ang1 and Ang2 (R&D systems) and Regeneron Co. antibody (RG antibody) were co-treated was included as a control group. HUVEC cells were treated with 0.2 ug/ml of Ang1, 0.1 ug/ml of Ang2, or 0.1 ug/ml of Ang2 and 0.5 ug/ml of antibody, respectively and after 30-min. pre-incubation, they were treated with 100 ng/ml of LPS (Sigma) to induce inflammatory response and incubated for 5 hours.\nThe degree of the inflammatory response was identified by measuring the mRNA expression degree of an inflammatory adhesion substance (ICAM-1, E-selectin). The cells were washed using PBS, RNA was extracted using RNeasy Mini kit (Qiagen), and among them, 2 ug of RNA was synthesized into cDNA using Transcriptor First Strand cDNA synthesis kit (Roche). qPCR reaction was performed using RT2 SYBR™ Green Mastermix (Qiagen) and LightCycler™ 480 Real-Time PCR System (Roche). As an internal control for calibrating the amount of RNA in a sample, HPRT1 was used, and qPCR complied with the following procedures with regard to all the primers.\nStep 1: 95° C., 10 min; Step 2 (45 cycles): Step 2-1: 95° C., 15 sec; Step 2-2: 60° C., 1 min; Step 3: 65° C., 15 sec; Step 4: 95° C., continuous (every 20° C.); Step 6: 40° C., 10 sec."}, "[3]": {"system": "lymphatic endothelial cells", "test": "BrdU proliferation assay, lymphatic endothelial cells", "format": "cell-based", "details": "2 ug/ml Ang2 with 10 ug/ml antibody; 3 days", "description": "The measurement assay of the proliferation of vascular and lymphatic endothelial cells was conducted using a BrdU assay kit (Roche) Cell. Vascular endothelial cells of P3˜P8 (HUVEC, ATCC) or lymphatic endothelial cells (Lonza) were placed in a collagen-coated 96-well plate (BD Bioscience) at 3000˜5000 cells/well and cultured in EGM-2 media (Lonza) for 16˜24 hours. A mixture of 2 ug/ml of Ang2 (R&D systems) and 10 ug/ml of antibody 10D6 in 2% EBM media was added to the 96-well plate washed with PBS, which was then cultured for 3 days.\nFor efficiency comparison, an anti-Ang2 antibody (MEDI: Medlmmune Co.) was used. For a BrdU assay, 10 ul of BrdU solution diluted at 1:1,000 was added to each well of the plate to label the cells. The cells were cultured for 1 hour and after the removal of the culture solution, 100 ul of Fixation/Denaturation solution (Roche) was added to each well and then, removed after 30-min wait. An anti-BrdU antibody (Roche) conjugated with peroxidase was diluted in a dilution buffer (Roche) at 1:100, added to each well to react for 1 hour and then, washed four times using a washing buffer (Roche). 100 ul of a TMB substrate was added thereto to react and then, absorption was measured at 450 nm using a Microplate reader (Perkin Elmer)."}, "[4]": {"system": "human colorectal cancer cell line Colo205", "test": "Colo205 colorectal cancer xenograft tumor growth", "format": "in vivo, mouse", "details": "BALB/c nude mice; 10 mg/kg intraperitoneal twice a week", "description": "To see the tumor growth inhibitory effects of Ang2 antibody, a colorectal cancer xenograft model using a human colorectal cancer cell line Colo205 (ATCC) was employed.\nThe Colo205 cell line was cultured using 10% FBS (Gibco)-supplemented RPMI-1640 (Gibco) media. 5×10^5 of Colo205 cell line were re-suspended in 100 ul of serum-free media and then subcutaneously injected into anesthetic 4˜5-week-old BALB/c nude mice (Shanghai SLAC Laboratory Animal Co. Ltd.) anesthetized with 1-2% isoflurane. When the size of tumors reached 100˜200 mm^3, anti-Ang2 antibody (10D6) was injected at the concentration of 10 mg/kg via an intraperitoneal injection twice a week and the size of the tumors was measured.\nThe size of tumor (V) was calculated using the following formula: V=(length×width^2)/2"}},
  "data": [
    {"molecule": "B1", "values": [
      {"measurement": "binding affinity (%) with mutant Ang2 against the binding affinity with the native Ang2, 449", "setting": "[1]", "result": 97.86, "unit": "%"},
      {"measurement": "expression of ICAM-1 induced by LPS", "setting": "[2]", "result": "remarkably suppressed"},
      {"measurement": "growth of lymphatic endothelial cells (BrdU)", "setting": "[3]", "result": "increased"},
      {"measurement": "tumor growth in Colo205 xenograft", "setting": "[4]", "result": "inhibited the growth of colorectal cancer"}
    ]}
  ]
}
